Assay results as given in PMC6404601.
Several values for one entry are separate records, joined by “and”; a condition that tells them apart may be missing. Equal values may be shown once.

Molecular target: YFP^C-Rho5 or YFP^C-Rho5^G12V
Assay: split reporter (BiFC, NanoBiT); BiFC of candidate VN fusions with YFP^C fusions of WT or mutant Rho5 (G12V, K16N) in living yeast cells; z-stack fluorescence microscopy at 22-25°; for Atg21-VN signals quantified above a threshold set from a strain with untagged Rho5

percent of cells with YFP signal above threshold: 40 % of cells and 62 % of cells
Substance: Atg21-VN (Atg21 tagged with VN, the N-terminal fragment of Venus) (from UniProt Q02887 1-496) (natural protein)
